Reference: US6753317
Non-standard residues stand in square brackets, D forms with d. *: point of attachment. des‑NH2‑α‑pyrrolidine‑1‑yl = Dmt (2',6'-dimethyl-L-tyrosine) with the α-amine replaced by pyrrolidine-1-yl, Cc1cc(O)cc(C)c1C[C@@H](C(=O)*)N1CCCC1; des‑NH2‑α‑pyrrole‑1‑yl = replacement of the α-amino group by a pyrrol-1-yl group; NH(1-Adamantyl) = C1C2CC3CC1CC(N*)(C2)C3; Dmt = Cc1cc(O)cc(C)c1C[C@H](N)C(=O)O; NH‑tetrazole‑5‑yl = n1nc(N*)n[nH]1; Tic = O=C(O)[C@@H]1Cc2ccccc2CN1; dTic = O=C(O)[C@H]1Cc2ccccc2CN1; NHtBu = CC(C)(C)N*

B1: H-Dmt-Tic-Ala-NH-tBu (peptide)
peptide: H-[Dmt]-[Tic]-Ala-NHtBu
SMILES: Cc1cc(O)cc(C)c1C[C@H](N)C(=O)N1Cc2ccccc2C[C@H]1C(=O)N[C@@H](C)C(=O)NC(C)(C)C
B2: H-Dmt-Tic-NH-1-adamantane (peptide)
peptide: H-[Dmt]-[Tic]-{NH(1-Adamantyl)}
SMILES: Cc1cc(O)cc(C)c1C[C@H](N)C(=O)N1Cc2ccccc2C[C@H]1C(=O)NC12CC3CC(CC(C3)C1)C2

Molecular target: δ-opioid receptor of the mouse vas deferens (MVD) (mouse), P32300
Experiment: cell-based or functional assay

Chain of δ-opioid receptor of the mouse vas deferens (MVD) (mouse), P32300 (P32300 whole entry, stated change not applied): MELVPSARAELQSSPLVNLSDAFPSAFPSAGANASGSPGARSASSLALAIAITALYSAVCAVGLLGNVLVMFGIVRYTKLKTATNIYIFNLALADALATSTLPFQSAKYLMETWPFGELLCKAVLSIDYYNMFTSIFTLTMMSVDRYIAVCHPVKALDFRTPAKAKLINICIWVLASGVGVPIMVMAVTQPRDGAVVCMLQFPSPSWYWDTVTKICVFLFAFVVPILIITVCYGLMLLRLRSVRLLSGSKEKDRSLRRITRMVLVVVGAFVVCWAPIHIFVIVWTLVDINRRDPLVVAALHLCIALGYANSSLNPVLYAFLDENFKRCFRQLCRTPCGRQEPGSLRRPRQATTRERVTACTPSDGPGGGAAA

Row | Binder | MVD Ke | MVD pA2 | MVD ED50
1 | {N,N‑dimethyl}-[Dmt]-[Tic]-OH (also: tritium-labelled form used as radioligand) [N,N(Me)2-Dmt-Tic-OH] | 0.28 nM | 9.4 | –
2 | H-[Dmt]-[Tic]-NH2 [H-Dmt-Tic-NH2] | 42 nM | 7.2 | –
3 | {N,N‑dimethyl}-[Dmt]-[dTic]-{NH(1-Adamantyl)} [N,N(Me)2-Dmt-D-Tic-NH-1-adamantane] | 128 nM | 6.91 | –
4 | H-[Dmt]-[Tic]-Ala-{NH(1-Adamantyl)} [H-Dmt-Tic-Ala-NH-1-adamantane] | 0.51 nM | 9.29 | –
5 | {N,N‑dimethyl}-[Dmt]-[Tic]-NHMe [N,N(Me)2-Dmt-Tic-NHMe] | 0.41 nM | 9.39 | –
6 | {N,N‑dimethyl}-[Dmt]-[Tic]-{NH(1-Adamantyl)} [N,N(Me)2-Dmt-Tic-NH-1-adamantane] | 0.87 nM | 9.06 | –
7 | H-[Dmt]-[Tic]-{NH‑tetrazole‑5‑yl} [H-Dmt-Tic-NH-tetrazole-5-yl] | 36.3 nM | 7.44 | –
8 | H-[Dmt]-[Tic]-Ala-OH [H-Dmt-Tic-Ala-OH] | 4 nM | 8.4 | –
9 | H-[Dmt]-[Tic]-Ala-NHMe (SMILES CNC(=O)[C@H](C)NC(=O)[C@@H]1Cc2ccccc2CN1C(=O)[C@@H](N)Cc1c(C)cc(O)cc1C) [H-Dmt-Tic-Ala-NHMe] | – | – | 1290 nM
10 | H-[Dmt]-[Tic]-Ala-NH2 [H-Dmt-Tic-Ala-NH2] | 9 nM | 8 | –
11 | H-[Dmt]-[dTic]-{NH(1-Adamantyl)} [H-Dmt-D-Tic-NH-1-adamantane] | > 10000 nM | – | –
12 | B1 | 0.69 nM | 9.16 | –
13 | {des‑NH2‑α‑pyrrolidine‑1‑yl}-[Dmt]-[Tic]-OH [[des-NH2-α-pyrrolidine-1-yl]-Dmt-Tic-OH] | 121 nM | 6.9 | –
14 | H-[Dmt]-[Tic]-NHMe [H-Dmt-Tic-NHMe] | > 10000 nM | – | 21200 nM
15 | {des‑NH2‑α‑pyrrole‑1‑yl}-[Dmt]-[Tic]-OH [[des-NH2-α-pyrrole-1-yl]-Dmt-Tic-OH] | 408 nM | 6.39 | –
16 | B2 | > 10000 nM | – | 870 nM
